Article PMC3943932 (Molecular cell, 2014)
Residue numbers refer to the chain shown, from its start. Names may count otherwise. Where two headings read alike, the source gives them in different places.

Tests used:
Test in all cases: pull-down
purified GST-PDK1 [1] = molecular target: T1, purified GST-PDK1 (UniProt Q15118 29-436)
purified GST-PDK1 [2] = molecular target: T1, purified GST-PDK1; remark: listed apart in the source
purified GST-PDP1 Y381F = molecular target: T2, purified GST-PDP1 Y381F (UniProt Q9P0J1 72-537, Y381F)
T2 sequence (looked up): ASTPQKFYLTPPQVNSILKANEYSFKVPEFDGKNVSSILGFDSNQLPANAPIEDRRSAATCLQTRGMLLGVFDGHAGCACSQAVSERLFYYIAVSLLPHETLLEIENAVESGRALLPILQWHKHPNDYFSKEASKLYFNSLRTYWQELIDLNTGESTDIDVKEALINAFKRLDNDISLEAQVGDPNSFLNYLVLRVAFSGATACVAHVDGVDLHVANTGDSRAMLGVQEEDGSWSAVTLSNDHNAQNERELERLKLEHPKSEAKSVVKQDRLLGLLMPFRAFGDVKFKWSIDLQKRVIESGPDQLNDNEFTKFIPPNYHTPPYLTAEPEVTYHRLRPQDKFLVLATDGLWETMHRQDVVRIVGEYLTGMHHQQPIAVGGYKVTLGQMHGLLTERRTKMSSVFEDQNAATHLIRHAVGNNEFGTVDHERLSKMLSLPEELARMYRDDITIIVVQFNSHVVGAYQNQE

T1 sequence (Q15118 29-436): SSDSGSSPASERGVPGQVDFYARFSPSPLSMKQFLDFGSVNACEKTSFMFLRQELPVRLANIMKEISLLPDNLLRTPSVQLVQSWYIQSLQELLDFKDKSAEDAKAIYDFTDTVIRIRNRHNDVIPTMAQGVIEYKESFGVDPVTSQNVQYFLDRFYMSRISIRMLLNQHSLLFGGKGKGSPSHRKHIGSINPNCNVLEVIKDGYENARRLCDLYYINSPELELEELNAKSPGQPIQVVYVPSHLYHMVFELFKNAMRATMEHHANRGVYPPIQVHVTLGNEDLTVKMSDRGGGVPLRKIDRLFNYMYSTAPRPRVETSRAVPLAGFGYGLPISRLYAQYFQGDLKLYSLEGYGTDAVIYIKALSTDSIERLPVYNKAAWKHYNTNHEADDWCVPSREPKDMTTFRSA

B1: purified recombinant FLAG-PDHA1 K244R, incubated with NAM+TSA-treated H1299 cell lysates (enzyme, UniProt P08559 30-390, looked up)
chain: FANDATFEIKKCDLHRLEEGPPVTTVLTREDGLKYYRMMQTVRRMELKADQLYKQKIIRGFCHLCDGQEACCVGLEAGINPTDHLITAYRAHGFTFTRGLSVREILAELTGRKGGCAKGKGGSMHMYAKNFYGGNGIVGAQVPLGAGIALACKYNGKDEVCLTLYGDGAANQGQIFEAYNMAALWKLPCIFICENNRYGMGTSVERAAASTDYYRRGDFIPGLRVDGMDILCVREATRFAAAYCRSGKGPILMELQTYRYHGHSMSDPGVSYRTREEIQEVRSKSDPIMLLKDRMVNSNLASVEELKEIDVEVRKEIEDAAQFATADPEPPLEELGYHIYSSDPPFEVRGANQWIKFKSVS
modifications: lysine acetylation by the lysates (K321 is the site that the paper ties to PDK1 binding)
- binding result (purified GST-PDK1 [1]): binds

B2: purified recombinant FLAG-PDHA1 K321R (enzyme, UniProt P08559 30-390, looked up)
chain: B1 chain with R215K, K292R
- binding result (purified GST-PDK1 [2]): binds

B3: recombinant FLAG-ACAT1 (enzyme, UniProt P24752 34-427, looked up)
chain: VSKPTLKEVVIVSATRTPIGSFLGSLSLLPATKLGSIAIQGAIEKAGIPKEEVKEAYMGNVLQGGEGQAPTRQAVLGAGLPISTPCTTINKVCASGMKAIMMASQSLMCGHQDVMVAGGMESMSNVPYVMNRGSTPYGGVKLEDLIVKDGLTDVYNKIHMGSCAENTAKKLNIARNEQDAYAINSYTRSKAAWEAGKFGNEVIPVTVTVKGQPDVVVKEDEEYKRVDFSKVPKLKTVFQKENGTVTAANASTLNDGAAALVLMTADAAKRLNVTPLARIVAFADAAVEPIDFPIAPVYAASMVLKDVGLKKEDIAMWEVNEAFSLVVLANIKMLEIDPQKVNINGGAVSLGHPIGMSGARIVGHLTHALKQGEYGLASICNGGGGASAMLIQKL
- binding result (purified GST-PDP1 Y381F): binds
